From patent publication US20240150411A1

Legend:
[1] = biological target: DS-Cav1-foldon-I53-50A trimer (respiratory syncytial virus (RSV)); assay: SPR, D25 immobilised, antigen at 50 nM heat-stressed at 70 °C for 1 h (FIG. 10)
[2] = biological target: DS-Cav1-foldon-I53-50 nanostructure, 100% valency (respiratory syncytial virus (RSV)); assay: as above

D25 monoclonal antibody
percent of binding signal retained after 70 °C for 1 hour [1]: 50% | percent of binding signal retained after 70 °C for 1 hour [2]: 80%
